Laboratory results taken from patent US20230279089A1 (GlaxoSmithKline, published 2023).
Changes are numbered by the printed parent chain. “And” between values parts separate entries of the source, which are not always exact repeats. Equal values may be shown once. Read-outs that look alike come from different tables or passages of the source.

Legend:
Human BMP1-1 = biological target: T1, Human BMP1-1 (human, UniProt P13497-2 121-730, limits assumed); assay: cell-based or functional assay
T1 sequence (looked up): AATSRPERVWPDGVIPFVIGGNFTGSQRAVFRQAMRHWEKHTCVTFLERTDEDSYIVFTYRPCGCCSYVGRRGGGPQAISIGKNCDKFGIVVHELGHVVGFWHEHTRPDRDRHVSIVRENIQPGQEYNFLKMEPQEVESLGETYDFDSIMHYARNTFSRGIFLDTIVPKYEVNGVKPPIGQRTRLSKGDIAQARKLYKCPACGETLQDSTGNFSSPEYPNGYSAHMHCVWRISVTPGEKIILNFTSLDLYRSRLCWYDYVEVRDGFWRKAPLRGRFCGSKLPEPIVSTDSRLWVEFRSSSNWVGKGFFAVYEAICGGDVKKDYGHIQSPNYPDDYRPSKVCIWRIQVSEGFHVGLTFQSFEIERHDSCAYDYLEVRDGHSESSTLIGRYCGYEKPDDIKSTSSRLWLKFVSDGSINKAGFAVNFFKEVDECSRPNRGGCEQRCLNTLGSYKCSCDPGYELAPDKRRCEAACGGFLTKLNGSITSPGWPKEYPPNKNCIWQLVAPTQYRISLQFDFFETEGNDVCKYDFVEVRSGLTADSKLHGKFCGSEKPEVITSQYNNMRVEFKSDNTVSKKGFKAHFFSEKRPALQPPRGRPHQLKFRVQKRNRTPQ

Mouse BMP1-3: 126-707 = biological target: T2, Mouse BMP1-3: 126-707 (mouse, UniProt P98063 126-707); assay: cell-based or functional assay
T2 sequence (looked up): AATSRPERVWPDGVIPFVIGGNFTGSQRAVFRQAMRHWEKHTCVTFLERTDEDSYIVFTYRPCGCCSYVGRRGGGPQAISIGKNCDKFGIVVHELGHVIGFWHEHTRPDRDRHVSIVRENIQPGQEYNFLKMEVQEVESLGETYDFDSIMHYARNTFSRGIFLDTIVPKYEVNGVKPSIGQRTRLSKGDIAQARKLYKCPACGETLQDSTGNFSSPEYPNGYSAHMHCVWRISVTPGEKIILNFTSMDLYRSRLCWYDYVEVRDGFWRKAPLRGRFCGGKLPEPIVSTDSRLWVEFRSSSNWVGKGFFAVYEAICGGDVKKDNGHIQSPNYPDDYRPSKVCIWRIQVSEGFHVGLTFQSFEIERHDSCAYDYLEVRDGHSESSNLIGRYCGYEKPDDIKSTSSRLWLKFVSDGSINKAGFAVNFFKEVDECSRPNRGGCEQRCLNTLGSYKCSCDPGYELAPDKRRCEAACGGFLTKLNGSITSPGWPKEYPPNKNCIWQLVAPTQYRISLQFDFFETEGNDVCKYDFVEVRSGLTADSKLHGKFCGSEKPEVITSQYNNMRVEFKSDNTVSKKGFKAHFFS

[1] = biological target: T3, Human BMP1 CD+CUB1 truncated antigen (human, UniProt P13497 121-434, limits assumed); assay: SPR, captured mAb, HBS-EP
T3 construct: domain: CD+CUB1
T3 sequence (looked up): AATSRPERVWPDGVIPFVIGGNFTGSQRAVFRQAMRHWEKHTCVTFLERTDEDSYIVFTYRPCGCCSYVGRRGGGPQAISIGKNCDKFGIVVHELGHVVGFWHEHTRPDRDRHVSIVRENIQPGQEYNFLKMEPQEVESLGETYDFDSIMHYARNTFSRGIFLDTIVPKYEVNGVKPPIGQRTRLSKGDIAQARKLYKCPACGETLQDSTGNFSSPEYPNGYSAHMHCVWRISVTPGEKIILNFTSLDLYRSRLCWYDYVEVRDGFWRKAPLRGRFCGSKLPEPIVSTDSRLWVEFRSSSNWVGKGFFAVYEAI

[2] = biological target: T4, Human TLL2 CD+CUB1 truncated antigen (human, UniProt Q9Y6L7 150-463, limits assumed); assay: SPR, captured mAb, HBS-EP
T4 construct: domain: CD+CUB1
T4 sequence (looked up): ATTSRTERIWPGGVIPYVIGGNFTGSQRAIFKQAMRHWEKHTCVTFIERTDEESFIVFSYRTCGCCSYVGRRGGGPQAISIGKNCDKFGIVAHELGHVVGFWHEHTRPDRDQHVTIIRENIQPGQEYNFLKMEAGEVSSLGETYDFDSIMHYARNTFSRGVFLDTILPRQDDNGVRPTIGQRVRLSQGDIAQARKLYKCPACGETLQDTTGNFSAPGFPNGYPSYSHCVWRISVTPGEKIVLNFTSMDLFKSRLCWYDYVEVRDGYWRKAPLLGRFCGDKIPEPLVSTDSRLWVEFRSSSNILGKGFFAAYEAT
Description: (§1) Both antibodies 13Y039-4B06-4334 and 13Y039-3E07-2944 and the reverse chimeric antibodies were evaluated for binding to human TLL2 CD+CUB1 and mouse BMP1 CD+CUB1 truncated antigens by SPR on a BIACORE T200. Protein A/G was immobilised to a CM5 sensor chip via amine coupling and the antibodies were captured to the protein A/G surface. The antigens were passed over the captured antibody at various concentrations. The measured affinities to human TLL2 CD+CUB1 are shown in Table 2 and the measured affinities to mouse BMP1 CD+CUB1 are shown in Table 3.

[3] = biological target: T5, Mouse BMP1 CD+CUB1 truncated antigen (mouse, UniProt P98063 126-439, limits assumed); assay: SPR, captured mAb, HBS-EP
T5 construct: domain: CD+CUB1
T5 sequence (looked up): T3 sequence (looked up) with V99I, P134V, P178S, L247M, S279G
Description: as §1

[4] = biological target: T3, Human BMP1 CD+CUB1 truncated antigen; assay: SPR, captured mAb, enzyme dilution buffer
[5] = biological target: T4, Human TLL2 CD+CUB1 truncated antigen; assay: SPR, captured mAb, HBS-EP; remark: listed apart in the source
Description: as §1

- pKi, app, FRET enzyme activity, Human BMP1 (Human BMP1-1): 12.3
- pKi, app, FRET enzyme activity, Mouse BMP1 (Mouse BMP1-3: 126-707): 11.4
- Kd [1]: 2.33 nM
- Kd [2]: 3.55 nM
- Kd [3]: 0.82 nM and 1.98 nM
- Kd [4]: 0.04 nM
- Kd [5]: 3.54 nM
B1: 13Y039-4B06-4334 human variable region on mouse IgG2a LAGA Fc, mouse cKappa (Compound A) (antibody)
heavy: QVQLVQSGAEVKKPGASVKVSCKASGYTFLGYYMSWVRQAPGQGLEWMGWINPLSGETNYAQKFQGRVTMTRDTSISTAYMELSRLRSDDTAVYYCARDTGELDGMNWYFDLWGRGTLVTVSSAKTTAPSVYPLAPVCGDTTGSSVTLGCLVKGYFPEPVTLTWNSGSLSSGVHTFPAVLQSDLYTLSSSVTVTSSTWPSQSITCNVAHPASSTKVDKKIEPRGPTIKPCPPCKCPAPNLAGAPSVFIFPPKIKDVLMISLSPIVTCVVVDVSEDDPDVQISWFVNNVEVHTAQTQTHREDYNSTLRVVSALPIQHQDWMSGKEFKCKVNNKDLPAPIERTISKPKGSVRAPQVYVLPPPEEEMTKKQVTLTCMVTDFMPEDIYVEWTNNGKTELNYKNTEPVLDSDGSYFMYSKLRVEKKNWVERNSYSCSVVHEGLHNHHTTKSFSRTPGK
light: EIVLTQSPATLSLSPGERATLSCRASQSVSSYLAWYQQKPGQAPRLLIYDASNRATGIPARFSGSGSGTDFTLTISSLEPEDFAVYYCQQSDSWPPTFGGGTKVEIKRADAAPTVSIFPPSSEQLTSGGASVVCFLNNFYPKDINVKWKIDGSERQNGVLNSWTDQDSKDSTYSMSSTLTLTKDEYERHNSYTCEATHKTSTSPIVKSFNRNEC
notes: Reverse chimera; the printed variable regions are those of 4B06-4334; also called 13Y039-4B06-4334 reverse chimera mouse IgG2a LAGA; 13Y039-4B06-4334, mIgG2a LAGA
